From US20240018240A1 (Hoffmann-La Roche, published 2024)
Where a chain is given by its changes, count along the chain named. Names may count otherwise.

B1: TYRP1 T-cell bispecific antibody (TCB) comprising anti-CD3 antibody P035.093 (bispecific antibody, human IgG1, kappa, L234A L235A)
heavy 1: not shown
heavy 2: QVQLVQSGAEVKKPGASVKVSCKASGFNIKDYFLHWVRQAPGQGLEWMGWINPDNGNTVYAQKFQGRVTMTADTSTSTVYMELSSLRSEDTAVYYCTRRDYTYEKAALDYWGQGTLVTVSSASTKGPSVFPLAPSSKSTSGGTAALGCLVEDYFPEPVTVSWNSGALTSGVHTFPAVLQSSGLYSLSSVVTVPSSSLGTQTYICNVNHKPSNTKVDEKVEPKSCDKTHTCPPCPAPEAAGGPSVFLFPPKPKDTLMISRTPEVTCVVVDVSHEDPEVKFNWYVDGVEVHNAKTKPREEQYNSTYRVVSVLTVLHQDWLNGKEYKCKVSNKALGAPIEKTISKAKGQPREPQVCTLPPSRDELTKNQVSLSCAVKGFYPSDIAVEWESNGQPENNYKTTPPVLDSDGSFFLVSKLTVDKSRWQQGNVFSCSVMHEALHNHYTQKSLSLSP
light 1: DIQMTQSPSSLSASVGDRVTITCRASGNIYNYLAWYQQKPGKVPKLLIYDAKTLADGVPSRFSGSGSGTDFTLTISSLQPEDVATYYCQHFWSLPFTFGQGTKLEIKRTVAAPSVFIFPPSDRKLKSGTASVVCLLNNFYPREAKVQWKVDNALQSGNSQESVTEQDSKDSTYSLSSTLTLSKADYEKHKVYACEVTHQGLSSPVTKSFNRGEC
light 2: EVQLLESGGGLVQPGGSLRLSCAASGFTFSSYAMNWVRQAPGKGLEWVSRIRSKYNNYATYYADSVKGRFTISRDDSKNTLYLQMNSLRAEDTAVYYCVRASNFPASYVSYFAYWGQGTLVTVSSASVAAPSVFIFPPSDEQLKSGTASVVCLLNNFYPREAKVQWKVDNALQSGNSQESVTEQDSKDSTYSLSSTLTLSKADYEKHKVYACEVTHQGLSSPVTKSFNRGEC
notes: 2+1 IgG CrossFab, inverted, with charge modifications; human IgG1 Fc with knob-into-hole and P329G LALA; also called P035.093 (in TCB format); TYRP1 TCB P035.093
B2: TYRP1 T-cell bispecific antibody (TCB) comprising anti-CD3 antibody CD3opt (bispecific antibody, human IgG1, kappa, L234A L235A)
heavy 1: not shown
heavy 2: B1 heavy 2
light 1: B1 light 1
light 2: B1 light 2 with T28Q, A101H, S102T, N103T, A106S, F112Y, A113G
notes: 2+1 IgG CrossFab, inverted, with charge modifications; human IgG1 Fc with knob-into-hole and P329G LALA; also called CD3opt (in TCB format)
B3: TYRP1 T-cell bispecific antibody (TCB) comprising anti-CD3 antibody CD3orig (bispecific antibody, human IgG1, kappa, L234A L235A)
heavy 1: not shown
heavy 2: B1 heavy 2
light 1: B1 light 1
light 2: B1 light 2 with S31T, A101H, S102G, P105G, A106N, Y111W
notes: 2+1 IgG CrossFab, inverted, with charge modifications; human IgG1 Fc with knob-into-hole and P329G LALA; also called CD3orig (in TCB format)
B4: anti-CD3 antibody P035.093 in monovalent human IgG1 format (antibody)
heavy: not shown
chain: DKTHTCPPCPAPEAAGGPSVFLFPPKPKDTLMISRTPEVTCVVVDVSHEDPEVKFNWYVDGVEVHNAKTKPREEQYNSTYRVVSVLTVLHQDWLNGKEYKCKVSNKALGAPIEKTISKAKGQPREPQVCTLPPSRDELTKNQVSLSCAVKGFYPSDIAVEWESNGQPENNYKTTPPVLDSDGSFFLVSKLTVDKSRWQQGNVFSCSVMHEALHNHYTQKSLSLSP
light: B1 light 2
notes: also called P035.093 (in monovalent IgG format)
B5: anti-CD3 antibody CD3orig in monovalent human IgG1 format (antibody)
heavy: not shown
chain: B4 chain
light: B1 light 2 with S31T, A101H, S102G, P105G, A106N, Y111W
notes: also called CD3orig (in monovalent IgG format)

Key:
[1] = target: T1, Human CD3ε stalk-Fc(knob)-Avi/CD3δ stalk-Fc(hole) (human); experiment: SPR (Biacore T200, 25°C), TCB format, same conditions
T1 construct: Heterodimer of CD3 delta and CD3 epsilon ectodomains fused to a human Fc domain with knob-into-hole modifications and C-terminal Avi-tag; also called human CD3ε/δ; CD3ε/δ
Source text: (§1) For affinity measurements, TCB molecules were captured on a C1 sensorchip (GE Healthcare) surface with immobilized anti-Fc (P329G) IgG (an antibody that specifically binds human IgG₁ Fc (P329G); “anti-PG antibody”—see WO 2017/072210, incorporated herein by reference). The experimental setup is schematically depicted in FIG. 3. Capture IgG was coupled to the sensorchip surface by direct immobilization of around 400 resonance units (RU) using the standard amine coupling kit (GE Healthcare Life Sciences).
(§2) To analyze the interaction to CD3, TCB molecules were captured for 80 s at 25 nM with a flow rate of 10 μl/min. Human and cynomolgus CD3ε stalk-Fc(knob)-Avi/CD3δ stalk-Fc(hole) (CD3ε/δ, see SEQ ID NOs 24 and 25 (human) and SEQ ID NOs 26 and 27 (cynomolgus)) were passed at a concentration of 0.122-125 nM with a flow rate of 30 μl/min through the flow cells for 300 s. The dissociation was monitored for 800 s.
(§3) Kinetic constants were derived using the Biacore T200 Evaluation Software (GE Healthcare Life Sciences), to fit rate equations for 1:1 Langmuir binding by numerical integration. The half-life (t_{1/2}) of the interaction was calculated using the formula t_{1/2}=ln 2/koff.

[2] = target: T1, Human CD3ε stalk-Fc(knob)-Avi/CD3δ …; experiment: SPR (Biacore T200, 25°C), TCB format, monovalent binding
Source text: as §1, §2, §3

[3] = target: T1, Human CD3ε stalk-Fc(knob)-Avi/CD3δ …; experiment: SPR (Biacore T200, 25°C); TCB captured by anti-PG antibody on C1 chip, CD3ε/δ-Fc as analyte; 1:1 Langmuir fit
Source text: as §1, §2, §3

[4] = target: T2, Cynomolgus CD3ε stalk-Fc(knob)-Avi/CD3δ stalk-Fc(hole) (cynomolgus); experiment: as above
T2 construct: Heterodimeric Fc fusion, soluble analyte in SPR; also called cynomolgus CD3ε/δ
Source text: as §1, §2, §3

[5] = target: T1, Human CD3ε stalk-Fc(knob)-Avi/CD3δ …; experiment: SPR (Biacore T200, 25°C); TCB captured by anti-PG antibody on C1 chip, CD3ε/δ-Fc as analyte; t1/2 = ln 2/koff
Source text: as §1, §2, §3

[6] = target: T2, Cynomolgus CD3ε stalk-Fc(knob)-Avi/CD3δ …; experiment: as above
Source text: as §1, §2, §3

[7] = target: T1, Human CD3ε stalk-Fc(knob)-Avi/CD3δ …; experiment: SPR (Biacore T200); biotinylated human CD3ε/δ on SA chip, TCB injected at 2 µg/ml; normalised to anti-huIgG capture, relative to the non-stressed sample
Procedure: In order to assess the effect of the deamidation site removal and its effect on the stability of the antibodies, the anti-CD3 antibodies (in TCB format) were incubated for 14 days at 37° C., pH 7.4 and at 40° C., pH 6 and further analyzed by SPR for their binding capability to human CD3ε/δ. Samples stored at −80° C. pH 6 were used as reference. The reference samples and the samples stressed at 40° C. were in 20 mM His, 140 mM NaCl, pH 6.0, and the samples stressed at 37° C. in PBS, pH 7.4, all at a concentration of 1.0 mg/ml. After the stress period (14 days) samples in PBS were dialyzed back to 20 mM His, 140 mM NaCl, pH 6.0 for further analysis.
All SPR experiments were performed on a Biacore T200 instrument (GE Healthcare) at 25° C. with HBS-P+(10 mM HEPES, 150 mM NaCl pH 7.4, 0.05% Surfactant P20) as running and dilution buffer. Biotinylated human CD3ε/δ (see Example 3, SEQ ID NOs 24 and 25) as well as biotinylated anti-huIgG (Capture Select, Thermo Scientific, #7103262100) were immobilized on a Series S Sensor Chip SA (GE Healthcare, #29104992), resulting in surface densities of at least 1000 resonance units (RU). Anti-CD3 antibodies with a concentration of 2 μg/ml were injected for 30 s at a flow rate of 5 μl/min, and dissociation was monitored for 120 s. The surface was regenerated by injecting 10 mM glycine pH 1.5 for 60 s. Bulk refractive index differences were corrected by subtracting blank injections and by subtracting the response obtained from a blank control flow cell. For evaluation, the binding response 5 seconds after injection end was taken. To normalize the binding signal, the CD3 binding was divided by the anti-huIgG response (the signal (RU) obtained upon capture of the CD3 antibody on the immobilized anti-huIgG antibody). The relative binding activity was calculated by referencing each temperature stressed sample to the corresponding, non-stressed sample.

[8] = target: T1, Human CD3ε stalk-Fc(knob)-Avi/CD3δ …; experiment: SPR (Biacore T200, 25°C), monovalent IgG format, same conditions
Procedure: (§4) SPR experiments were performed as described in Example 3, with the monovalent IgG molecules prepared in Example 6.
(§5) To analyze the interaction to CD3, IgG molecules were captured for 240 s at 50 nM with a flow rate of 5 μl/min. Human and cynomolgus CD3ε stalk-Fc(knob)-Avi/CD3δ-stalk-Fc(hole) were passed at a concentration of 0.061-250 nM with a flow rate of 30 μl/min through the flow cells for 300 s. The dissociation was monitored for 800 s.

[9] = target: T1, Human CD3ε stalk-Fc(knob)-Avi/CD3δ …; experiment: SPR (Biacore T200, 25°C); monovalent IgG captured by anti-PG antibody on C1 chip, CD3ε/δ-Fc as analyte; t1/2 = ln 2/koff
Procedure: as §3, §4, §5

[10] = target: T2, Cynomolgus CD3ε stalk-Fc(knob)-Avi/CD3δ …; experiment: as above
Procedure: as §3, §4, §5

[11] = target: T1, Human CD3ε stalk-Fc(knob)-Avi/CD3δ …; experiment: SPR (Biacore T200, 25°C); monovalent IgG captured by anti-PG antibody on C1 chip, CD3ε/δ-Fc as analyte; 1:1 Langmuir fit; triplicates
Procedure: as §3, §4, §5

[12] = target: T2, Cynomolgus CD3ε stalk-Fc(knob)-Avi/CD3δ …; experiment: as above
Procedure: as §3, §4, §5

Kd [3] | koff [3] | kon [3] | Kd [4] | koff [4] | kon [4] | t1/2 [5] | t1/2 [6] | binding activity [%], 2 weeks at pH 6.0/40°C [7] | binding activity [%], 2 weeks at pH 7.4/37°C [7] | t1/2 [9] | Kd [11] | koff [11] | kon [11] | other results | Binder
0.41 nM | 0.00153 s⁻¹ | 3.75e+06 M⁻¹ s⁻¹ | 0.21 nM | 0.00104 s⁻¹ | 4.89e+06 M⁻¹ s⁻¹ | 7.55 min | 11.1 min | 97% | 95% |  |  |  |  | fold increase of affinity compared to CD3orig and CD3opt [1]: ≤ 10 fold; fold higher binding half-life than CD3orig and CD3opt [2]: ≤ 4 fold | B1
4.3 nM | 0.00621 s⁻¹ | 1.44e+06 M⁻¹ s⁻¹ | 0.86 nM | 0.0023 s⁻¹ | 2.67e+06 M⁻¹ s⁻¹ | 1.86 min | 5.02 min | 97% | 92% |  |  |  |  |  | B2
6.54 nM | 0.00338 s⁻¹ | 517000 M⁻¹ s⁻¹ |  |  |  | 3.42 min |  | 95% | 65% |  |  |  |  |  | B3
 |  |  |  |  |  |  |  |  |  | 8.25 min | 0.456 nM | 0.0014 s⁻¹ | 3.08e+06 M⁻¹ s⁻¹ | fold increase of affinity compared to CD3orig [8]: ≤ 10 fold; t1/2 [10]: 11.8 min; Kd [12]: 0.224 nM; koff [12]: 0.000981 s⁻¹; kon [12]: 4.38e+06 M⁻¹ s⁻¹ | B4
 |  |  |  |  |  |  |  |  |  | 3.98 min | 4.94 nM | 0.0029 s⁻¹ | 587000 M⁻¹ s⁻¹ |  | B5
